Test results: IntAct's records for PubMed 20890306

B1: FAS-associated death domain protein (Homo sapiens), Q13158 (parent)
chain: MDPFLVLLHSVSSSLSSSELTELKFLCLGRVGKRKLERVQSGLDLFSMLLEQNDLEPGHTELLRELLASLRRHDLLRRVDDFEAGAAAGAAPGEEDLCAAFNVICDNVGKDWRRLARQLKVSDTKIDSIEDRYPRNLTERVRESLRIWKNTEKENATVAHLVGALRSCQMNLVADLVQEVQQARDLQNRSGAMSPMSWNSDASTSEAS

Variants of: B1
Conditions: with plk1_human PLK1, P53350
Chain of plk1_human PLK1, P53350 (P53350 whole entry): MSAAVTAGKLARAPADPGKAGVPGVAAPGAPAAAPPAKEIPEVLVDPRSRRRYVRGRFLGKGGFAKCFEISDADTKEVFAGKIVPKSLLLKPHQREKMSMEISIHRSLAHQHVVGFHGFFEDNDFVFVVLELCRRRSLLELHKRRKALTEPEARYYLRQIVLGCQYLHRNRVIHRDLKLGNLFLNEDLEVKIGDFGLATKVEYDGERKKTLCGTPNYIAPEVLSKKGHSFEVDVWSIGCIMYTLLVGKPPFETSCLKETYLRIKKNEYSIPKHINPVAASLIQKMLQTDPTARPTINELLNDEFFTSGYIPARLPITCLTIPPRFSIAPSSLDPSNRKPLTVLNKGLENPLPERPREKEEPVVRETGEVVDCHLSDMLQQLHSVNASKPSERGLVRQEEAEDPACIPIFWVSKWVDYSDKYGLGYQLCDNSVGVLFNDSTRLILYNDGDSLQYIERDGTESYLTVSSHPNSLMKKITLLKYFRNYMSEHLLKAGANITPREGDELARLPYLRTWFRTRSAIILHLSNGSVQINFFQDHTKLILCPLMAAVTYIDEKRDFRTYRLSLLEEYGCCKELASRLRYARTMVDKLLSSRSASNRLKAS

Variant	effect of a mutation on the interaction
MDPFLVLLHSVSSSLSSSELTELKFLCLGRVGKRKLERVQSGLDLFSMLLEQNDLEPGHTELLRELLASLRRHDLLRRVDDFEAGAAAGAAPGEEDLCAAFNVICDNVGKDWRRLARQLKVSDTKIDSIEDRYPRNLTERVRESLRIWKNTEKENATVAHLVGALRSCQMNLVADLVQEVQQARDLQNRSGAMAPMSWNSDASTSEAS [S194A]	disrupting interaction
